Tests used:
[1] = biological target: NLS-iLID-iLID-GFP-ferritin (Gallus gallus; human) (UniProt P02794); experiment: cell-based or functional assay
[2] = biological target: NLS-iLID-GFP-ferritin (Gallus gallus; human) (UniProt P02794); experiment: cell-based or functional assay

Substance: FUS(1-214)-mCherry-sspB (from UniProt P0AFZ3 6-116)
- mCherry fluorescence at core based droplets after light activation (live cell confocal imaging) [1]: 15 s
- mean mCherry intensity in locally activated droplets relative to nucleoplasm [2]: 100 fold
